{"source": "the nanobody polyreactivity screen of Harvey et al. (2022)", "data": [{"experiment": "yeast display, Sf9 membrane polyspecificity reagent, FACS + sequencing; frameworks hold sequencing errors", "method_in_brief": "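Using colony PCR, genes from sorted yeast display clones were amplified, then sequenced on MiSeq at 2 × 250 and filtered by CDR length. The clones had been stained with 10% biotinylated, detergent-solubilized Sf9 membrane reagent for 1 hour at 4 °C and sorted by FACS into low and high (top ~1%) gates on anti-HA and streptavidin fluorescence. Polyreactivity labels come from the gate of origin.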", "values": [{"sequence": "QVQLVESGGGLVQAGGSLRLSCAASGFIFYHNAMGWYRQAPGKERELVAVISSGGSTYYADSVKGRFTISRDNAKNTVYLQMNSLKPEDTAVYYCAALYYGWSGSYAMDYWGQGTQVTVSS", "polyreactivity (PSR sort gate)": "high polyreactivity"}, {"sequence": "QDQLVESGGGLVQAGGSLRLSCAASGSIFFINAMGWYRQAPGKERELVAAITYSGGSTYYADSVKGRFTISRDNAKYTVYLQMNSLKPEDTAVYYCAADQYSFLPWIAWLLDDYWGQGTQVTVSS", "polyreactivity (PSR sort gate)": "low polyreactivity"}, {"sequence": "QVQLVESWGGLVQAGGSLRLSCAASGSTFYRYAMGWSRQAPGKERELVAAINTGGSTNYADSVKGRFTISRDNAKNTVYLQMNSLKPEDTAVYYCAARFQYYRKYDYWGQGTQVTVSS", "polyreactivity (PSR sort gate)": "low polyreactivity"}, {"sequence": "QVQLVESGGVLVQAGGSLRLSCAASGRTFWYNAMGWYRQAPGKEWELVAAISSTGGRTYYADSVKGRFTISRDNAKTTVYLQMNSLKPEDTAVYYCAARQLSSHYDYWGQGTQVTVSS", "polyreactivity (PSR sort gate)": "low polyreactivity"}, {"sequence": "QVQLVESGGGLVQAGGSLRLSCPASGSTFQYYHMGWYRQEPGKERELVASITGSGDSTYYADSVKGRFTISRDNAKNTVYLQMNSLNPEDTAVYYCAAQITWSGYYDYWGQGTQVTVSS", "polyreactivity (PSR sort gate)": "low polyreactivity"}, {"sequence": "QVQLVESGGGLVQAGGSLRLSCAASGSIFRLYAMGWYRPAPGKERELVATITSGGNTYADSVKGRFTISRDNAKNTVYLQMNSLKPEDTAVYYCAARYRYRGTQRPYVGYYRNDYWGQGTQVTVSS", "polyreactivity (PSR sort gate)": "high polyreactivity"}, {"sequence": "QVQLVESGGGLVQAGGSLRLSCAASGSTIYFNGMGWYRQAPGKERELVAAITSGGSTDYADSVKGRFTISRDNAKNTVYLQMNSLKPEDTAVYYCAADHYGRYDYWGQGTQVTVSS", "polyreactivity (PSR sort gate)": "low polyreactivity"}, {"sequence": "QVQLVESGGGLVQAGVSLRLSCAASGFILDYNTMGWYRQAPGKERELVAAISSSGDTTYYADSVKGRFTISRDNAKNTVYLQMNSLKREDTAVYYCAREYGVGYEYWGLGTQVTVSS", "polyreactivity (PSR sort gate)": "low polyreactivity"}, {"sequence": "QVQLVESGGGLVQAGGSLRLSCAASGRTFVGNAIGWYRQATGKERELVAAINGSGGSTYYEDSVKGRFTISRDNAKNTVYLQMNSLKPEDPAVYYCNARPGVYVVIYDYWGQGTQVTVSS", "polyreactivity (PSR sort gate)": "low polyreactivity"}, {"sequence": "QVQLVESGGGLVHAGGSLRLSCAASGRTFAYNAMGWYRQAPGKERELVAAITRSTGNTYYADSVKGRFTISRDNAKNTVYLQMNSLKPEDTAVYYCAAAYAYWRKYDYWGQGTQVTVSS", "polyreactivity (PSR sort gate)": "high polyreactivity"}, {"sequence": "QVQLVESGGGLVQAGGSLRFSCAASGGIFFRNAMGWYRQAPGKERELVAVISSGGSTYYADSVKGRFTISRDNAKNTVYLQMNSLKPEDTAVYYCAARRKRPVYTVTLHYPYNYWGQGTQVTVSS", "polyreactivity (PSR sort gate)": "high polyreactivity"}, {"sequence": "QVQLVESGGGLVQAGGSLRLSCAASGITFYGNAMGLYRQAPGKERELVANTYYADSVKGRFTISRDNAKNTVYLQMNSLKPEDTAVYYCANRNARYRSLPPGYDYWGLGTQVTVSS", "polyreactivity (PSR sort gate)": "low polyreactivity"}, {"sequence": "QVQLVESGGGLVQAGGSLRLSCAASGFILSPNTMGWYRLAPGKERELVAAISSDVSTYADSVKGRFTISRDNAKNTVYLQMYSLKPEDTAVYYCNADDFGYASYESWGQGTQVTVSS", "polyreactivity (PSR sort gate)": "low polyreactivity"}, {"sequence": "QVQLVESGGGLVQAGGSLRLSCAASGITFVHNVMGWYRQAPGKERELVAAINSGGRTYYADSVKGRFTISRDNAKNTVYLQMNSLKPEDTAVYYCAALGDKRGGGNYWGQGTQVTVSS", "polyreactivity (PSR sort gate)": "high polyreactivity"}, {"sequence": "QVQLVESGGRLVQAGGSLRLSCAASGITFYYYAMGWYRQAPGKERELVAAISSGGTRTYYADSVKGRFTISRDNAKNTVYLQMNSLKPEDTAVYYCAAPTYWHPTYDYWGQGTQVTVSS", "polyreactivity (PSR sort gate)": "high polyreactivity"}, {"sequence": "QVQLVESGGGLVQAGGSLRLSCAASGFTLYAYVMGWYRQAPGKERDLVAAISRSGGSTYYADSVKGRFTISRDNAKNTVYLQMNSLKPEDTAVYYCAAQYKRYHRLYGYWGQGTQVTVSS", "polyreactivity (PSR sort gate)": "high polyreactivity"}, {"sequence": "HVQLQETGGGLVQAGGCLSCTASGTIFGQGDMGWYRPAPGKERELVATINDGASTYYADSVKGRFTISRDKAKNTVYLQKNSLKPDDTAVNYCAVFTDITTYFGYWGQGTQVTVSS", "polyreactivity (PSR sort gate)": "low polyreactivity"}, {"sequence": "QVQLVESGGGLVQAGGSLRLSCAASGLIFDGNAMGWYRPAPGKERELVADITGSSVRTYYADSVKGRFTISRDNAKNTVSLQMNSLIPEDTAVYYCAATYGYLYTGLSRYDYWGQGTQVTVSS", "polyreactivity (PSR sort gate)": "low polyreactivity"}, {"sequence": "QVQLVESGGGLVQAGGSLRLSCAACGFIFYINTMGWYRQAPGKERELVAAISQSGVGTSYADSVKGRFTISRDNAKNTVYLQMNSLKPEDTAVYDCATDFARSDVVDRFAYWRQGTQVTVSS", "polyreactivity (PSR sort gate)": "low polyreactivity"}, {"sequence": "QVQLVESGGGLVQAGCSLRLSCAASGRIFASNPMGWYRQAPGKERELVAGISRNGGSTFYADSVKGRFTISRDNAKNTVDVQMHSLKPEDTEVYYCARYFTHSGGYRDRIYYYWGQGTQVTVSS", "polyreactivity (PSR sort gate)": "low polyreactivity"}, {"sequence": "QVQLVESGGCLVQAGGSLRLSCAASGFIFSSYAMGWYRQAPGKERELVAAISVSGGSTNYADSVKGRFTISRDNAKNTVFLQMNSLKPEDTAVYYCAARVRDSLVYGGWDDYWGQGTQVTVSS", "polyreactivity (PSR sort gate)": "high polyreactivity"}, {"sequence": "QVQLVESGGGLVQAGGSLRLSCAASGFTFNGYARGWYRQAPGKDRELVATMTNGGSTYYADSVKGRFTISRDNAKNTVYLQMNSLKPEDTAVYYCAAESEQATPGYLAPLFDYWGQGTQVTVSS", "polyreactivity (PSR sort gate)": "low polyreactivity"}, {"sequence": "QVQLVESGGGLVQAGGSLRLSCAASGRTFQWYTMGWYRQAPGKERELVAAISWSGTSTYYADSVKGRFTISRDIAKNTVYLQMNILNPEDTAVYYCAAEVIGRYYRLDYWGQGPQVTVSS", "polyreactivity (PSR sort gate)": "low polyreactivity"}, {"sequence": "QVQHVESAAGLVQAGGSLRLTCAASGSIFRVYTMGWSRQAPGKERELVAAISRSGGRTYYADSVKGRFTISRDNAKNTVYLQMNSLKPEDTAVYYCAKRGRVTYPYYYWGQGTQVTVSS", "polyreactivity (PSR sort gate)": "high polyreactivity"}, {"sequence": "QVQLVQSGGGLVQAGGSLRLSCAASGITFEYNTMGWYRQAPGKERELVAAITQGGGTTNYADSVKGRFTISRDNAKNTVYLQMNSLKPEDTAVYYCAAFVGYLLLYYPTYYYWGQGTEVTVSS", "polyreactivity (PSR sort gate)": "low polyreactivity"}, {"sequence": "QVQLVESGGGLVEAGGSLRLSCAASGLTFYLYDMGWYRQAPGKERELVAAISRRGTSTYYADSVKGRFTISRDNAKNSVYLQMNSLKPEDTAVYYCAADRKVGRDYWGQGTQVTVSS", "polyreactivity (PSR sort gate)": "high polyreactivity"}, {"sequence": "QVQLVESGGGLVQAGGSLRLSSAASGRIFQRYAMGCYRQAPGKERELVAAISGSGGRTYYADSVKGRFTISRDNAKNTVYLQLNSLKPDDSAVYYCAAYPSYYADSGLRYDYWGQGTQVTVSS", "polyreactivity (PSR sort gate)": "high polyreactivity"}, {"sequence": "QVQLVESGGGLVQARGSLRLSCAASGSISDYYAMGWYRQAPGKERELVAAISWDGGSTYYADSVKGRFTISRDNAKNTVYLQLNSLKPEDTAVYYCNAGSGASVGNNILYDYWGQGTQVTVSS", "polyreactivity (PSR sort gate)": "low polyreactivity"}, {"sequence": "QVQLVESRGRLVQAGGSLRLSCAASGSIFVGNAMGWYRQAPGKERELVAAISSGGSTYYADSVKGRFTISRDNAKNTVYLQMNSLKPEDTAVYFGAAYYVRRYSSRPKDDYWGQGTQVSVSS", "polyreactivity (PSR sort gate)": "low polyreactivity"}, {"sequence": "QVQLVESGGCLVQAGGSLRLSCAASGRTFRGYAMGWYRQAPGKERELVARISVSGGSTYYADSVKGRFTISRDNAKNTVYLQMNSLTPDDTAVYYCNARPYTYWRSQYDYWGQGTQVTVSS", "polyreactivity (PSR sort gate)": "high polyreactivity"}, {"sequence": "QVQHVESGGGLVQAGGSLRLSCAASGRTFRKNAMGWYRQAPGKERELVAAITGSSGTTYYADSVKGRFTISRDNAKNTVYLQMNSLKPEDTAVYYCATTVGDPGRRYYYWGQGTQVTVSS", "polyreactivity (PSR sort gate)": "high polyreactivity"}, {"sequence": "QVQLVESGGGLVQAGGSLRLSCAASGSIFTHYAMGWYRPAPGKERELVATISNGDGSTYYADSVKGRFTISRDNAKNTVYLQMNSLKPEDTAVYYCNVDDFSQYADDSWGYEYWGQGTQVTVSS", "polyreactivity (PSR sort gate)": "low polyreactivity"}, {"sequence": "QVQLVESGGGLVQAGGSLRLSCAASGSTFKDNAMGWYIQAPGKERELVASITGRGGSTYYADSVKGRFTISRDNAKNTVYLHMNSLKPEDTAVYYCAARAYYGVYKSPYDYWGQGTQVTVSS", "polyreactivity (PSR sort gate)": "high polyreactivity"}, {"sequence": "QVQLVESGGGLVQAGGSLRLSCAASGIIFGHYAMGWYRQAPGKERELVAAIRSSGGTTYYADSVKGRFTISRDNAKNTVYLQMNRLKPEDTAVYYCAKRGVHLYHDYYWGQGTQVTVSS", "polyreactivity (PSR sort gate)": "low polyreactivity"}, {"sequence": "QVHLVESGGGLVQAGGSLRLSCAASGSTFTDYTIGWYRQAPGKERELVARIRSRGARTYYADSVKGRFTISRDNAKNTVYLQMNSLKPEDTAVNSCNKRWGCLRASPAYDYWGQGTQVTVSS", "polyreactivity (PSR sort gate)": "high polyreactivity"}, {"sequence": "QVQLVESGGGLVQAGGSLRLSCAASGITFVWNAMGWYRQAPGKVREFVAGITYRSGRTYYADSVKGRFTISRDNAKNTVYLQMNSLKPEETAGYYCATTPRYTTYNYWGQGTQVTVSS", "polyreactivity (PSR sort gate)": "high polyreactivity"}, {"sequence": "QVQLVESGGGLFQAGGSLRLSCAASGRTFHANAMGWYRQAPGKERELVARINWSGTSTYYADSVKGRFTISRDNAKNTVYLQMNSLKPEDTAVYYCAAGWIRQYSSLYDYWGQGTQVTVSS", "polyreactivity (PSR sort gate)": "high polyreactivity"}, {"sequence": "QVQLVESAGGLVQAGGSLSLSCAASGSTFASYAMGWYRQAPGKEREFVAAITRSGTSTYYADSVKGRFTISRDNAKNTVYLQMNSLKPEDTAVYYCNATRRTVGFGYWGQGTQVTVSS", "polyreactivity (PSR sort gate)": "high polyreactivity"}, {"sequence": "QVQLVESGGGLFLAGGSLRLSCAAAGSTFVTNDMGWYRQAPGKERELVAAISVGGRTSYADSVKGRFTISRDNAKNTVYLQMNSLKPEDTAVYYCAAQYRYTYWGQGTQVTVSS", "polyreactivity (PSR sort gate)": "low polyreactivity"}, {"sequence": "QVQLVESGGGLVQAGGSLRLSCAASGFILYFNAMGWYSQAPGKERELVAAITSDGGSTYYADSVKGRFTISRDNAKNTVYLQMNSLKPEDTAVYYCAADASTWYTEEYWGQGTQVTVSS", "polyreactivity (PSR sort gate)": "low polyreactivity"}, {"sequence": "QVQLVESGGGLVHAGGSLRLSCAASGIIFGVYAMGWYRQAPGKERELVAAISWSGGSTYYADSVKGRFTISRDNAKNNVYLQMNSLKPEDTAVYYCAADAYPHEDYYWGQGNQVTVSS", "polyreactivity (PSR sort gate)": "high polyreactivity"}, {"sequence": "QVPLVESGGGLVQAGGSLRLSCAASGRTFGRYAMGWYRQTHGKERELVASISWRGGSTYYADSVKGRFTISRDYAKNTVFLQMNSLKPEDTAVYYCAVRFLTYWHGSYWYDYWGQGTQVTVSS", "polyreactivity (PSR sort gate)": "high polyreactivity"}, {"sequence": "QVQLVESGGGLVQAGGSLRLSCADSGRIFGSNAMGWYRQAPGKERELVAAISWRGASTYYADSVKGRFTISRDNAKNTVYLQMNSLKPEDTAVYYCATRGQTRTTTRYYSWGQGTQVTVSS", "polyreactivity (PSR sort gate)": "high polyreactivity"}]}]}
